Results as given in patent US20130034894A1, “NOVEL ALLENE OXIDE SYNTHASE DERIVED FROM LEMNA PAUCICOSTATA” (priority 2010, published 2013).

How the values were obtained:
[1] = Kinetic analysis of allene oxide synthase (decrease in absorbance at 234 nm, Hanes-Woolf plot); type: biochemical; details: for Kcat / Km / Vmax: substrate 9-HPOT 5-53 μM, 40 mM phosphate buffer pH 7.5, 1% EtOH, 25° C.
Method: SHLpAOS obtained from Lemna paucicostata SH strain was subjected to kinetic analysis. Using a reaction mixture comprising 40 mM phosphate buffer (pH 7.5) and 1% EtOH, the reaction was carried out at a temperature of 25° C. The substrate 9-HPOT was tested at the substrate concentration of 5-53 μM. The substrate 9-HOPT was added as an EtOH solution, and the final concentration of EtOH was adjusted to 1%. 100 μl of the reaction mixture was added into a cuvette, and a decrease in absorbance at 234 nm was scanned over time for 1 minute at an interval of 2 seconds using the SmartSpec Plus Spectrophotometer (Bio-Rad). From the A234 determined, the amount of the reaction product was calculated (e=25,000). Kinetic parameters were determined using the Hanes-Woolf plot ([S]/v versus [S] plot). […] It is believed that compared to AtAOS, SHLpAOS is a very useful AOS in the practical production of KODA.

[2] = Activity testing in KODA production (HPLC quantitation of KODA); type: biochemical; details: 0.32 ng protein in 20 μl 9-HPOT reaction solution, room temperature, 10 minutes; relative to AtAOS
Source text: The allene oxide synthase activity can be determined by allowing a 9-product specific lipoxygenase to act on α-linolenic acid, and then adding a given amount of allene oxide synthase to the enzymatic reaction product 9-hydroperoxylinolenic acid (9-HPOT) to produce KODA, and the KODA produced is quantitatively analyzed by HPLC.
After the SHLpAOS sequence integrated into the pTAC-2 vector by the above method was cleaved with NcoI and XhoI, it was introduced into a commercially available vector pET41a (Novagen) for protein expression to obtain a plasmid pET41a/SHLpAOS for expression of Lemna paucicostata allene oxide synthase. This plasmid was transformed into Escherichia coli strain BL21(DE3) (Novagen). Then, it was inoculated in 3 ml of the LB medium containing 30 mg/l kanamycin, and cultured under shaking overnight at 37° C. and 250 rpm. 100 μl of this culture liquid was added to 10 ml of the LB medium containing the same concentration of kanamycin and 1% glucose and cultured under shaking at 37° C. and 250 rpm for 3-4 hours. […]
In the activity testing in KODA production, 5 mM linolenic acid solution (dissolved in 0.1% Tween 80 solution) was prepared, and reacted with lipoxygenase extracted from rice germ at pH 7 at room temperature for 10 minutes to synthesize 9-hydroperoxylinolenic acid (9-HPOT) solution. […] 10 μl of this solution was analyzed by HPLC. […]

Molecule	Affinity for 9-HPOT, higher than AtAOS ([1]; relative to AtAOS)	Kcat value, higher than in AtAOS ([1]; relative to AtAOS)	Kcat/Kn value, higher than in AtAOS ([1]; relative to AtAOS)	Vmax, higher than AtAOS ([1]; relative to AtAOS)	Kcat [1]	Km [1]	Vmax [1]	Activity in KODA production, higher than the AtAOS protein [2]
SHLpAOS: allene oxide synthase obtained from the Lemna paucicostata SH strain, expressed in Escherichia coli (SEQ ID NO: 2, 480 aa) (protein, listed as Lemna paucicostata) MSVSQSDDKAALVPQKTIPGSYGIPFITPLKDRLDFFSNEYQFFQSRVESYGSTIVRLNAPPGPFMAKNPQVIAILDGKSFPVLFDTSKVEKKNIFTGTYMPSTALTGGYRVCAYLDPSEPNHTKIKQLLLNILFNRKDHVIPEFHRAYEKLFDDMDAEIAKSGKFVFNDHNDGAAFEFLGRLFFGVSPSETELGAGGVKDANLWLFSQLCPLMTLGFLPKLLEDLLLHTFPLPPFLFKGKYQAIYKYISSVATDALTMAENLGLSREEAAHNLLFAVCFNSLGGVKVLFPGILRYIAQAGKNLQASLVSEVRSAVSSTGGELTIEALEKMPLTKSVVYESLRLDPPVKYQYGVVKKDMVIESHDRSYEVKAGETLFGYQPFATRDKKIFGPDADNFVAERFIGEEGAKVLRFVVWSNGPETTDPTPVDKQCPGKNLVVLISRLLVAEFFLRYDFFDAEIGAVPLAVKTTITSLTKATTR	about 5 fold	about 2.8 fold	about 14 fold	about 2.8 fold	709.2 ± 44.3 s⁻¹	7.1 ± 1.9 µM	4.7 ± 0.3 µmol/s	~7 fold
AtAOS: A. thaliana-derived allene oxide synthase (AOS) protein used as the control, expressed in Escherichia coli (protein, UniProt Q96242 34-518, looked up) Allene oxide synthase, …: SGSETPDLTVATRTGSKDLPIRNIPGNYGLPIVGPIKDRWDYFYDQGAEEFFKSRIRKYNSTVYRVNMPPGAFIAENPQVVALLDGKSFPVLFDVDKVEKKDLFTGTYMPSTELTGGYRILSYLDPSEPKHEKLKNLLFFLLKSSRNRIFPEFQATYSELFDSLEKELSLKGKADFGGSSDGTAFNFLARAFYGTNPADTKLKADAPGLITKWVLFNLHPLLSIGLPRVIEEPLIHTFSLPPALVKSDYQRLYEFFLESAGEILVEADKLGISREEATHNLLFATCFNTWGGMKILFPNMVKRIGRAGHQVHNRLAEEIRSVIKSNGGELTMGAIEKMELTKSVVYECLRFEPPVTAQYGRAKKDLVIESHDAAFKVKAGEMLYGYQPLATRDPKIFDRADEFVPERFVGEEGEKLLRHVLWSNGPETETPTVGNKQCAGKDFVVLVARLFVIEIFRRYDSFDIEVGTSPLGSSVNFSSLRKASF					255.5 ± 4.8 s⁻¹	36.3 ± 1.3 µM	1.7 ± 0.03 µmol/s	
